From paper PMC12102759

B1: MBOAT1 peptide 17-32 (Lysophospholipid acyltransferase 1), 16-mer library wild type / NSP3 ADRP (ORF1ab Nsp3b ADRP, residues 1023-1192) (parent)
chain 1: STYLHPLSELLGIPLD
chain 2: not shown

Variants of: B1
Conditions: with NSP3 ADRP (ORF1ab Nsp3b ADRP, residues 1023-1192); bait immobilised on MaxiSorp plates (10 µg), library pre-cleared on GST, 2 h binding at 4 °C, five washes; one round per day, days 1-4; value from days 2 and 3; keep out of graded; scale: average fractional NGS count over selection days 2 and 3

Screen value, by site and new letter:
chain 1 H5: L 0; S 5.25e-05; I 0; M 0; N 0.0049; Q 0
chain 1 S1: W 0.000263; A 0.000215; Q 0.000187; N 0.000536; D 0.000236; V 0.000869; I 0.000426; G 0.00039; P 0.000375; Y 0.00667; M 9.76e-05; E 0.00035; R 0; T 9.2e-05; H 0.000511
chain 1 S8: G 0; N 0
chain 1 E9: T 0; S 0; V 0; R 0; N 0; H 0; G 0; M 0
chain 1 Y3: S 2.54e-05; N 3.37e-05; T 3.8e-05; L 0; W 0; I 0; A 0.00112; G 0.000695; D 0.000184; M 0.000117
chain 1 G12: M 0.000127; I 5.57e-05; Q 0.000576; N 5.25e-05; S 0.000443; P 5.99e-05; A 0.00306; D 0; H 0.000369; W 3.64e-05
chain 1 L10: G 0; Q 0; Y 0.157; M 0.000281; H 3e-05; V 0; I 1.63e-05; N 1.09e-05; F 0.00233; R 0
chain 1 T2: A 0.000138; H 0.000152; F 0.00217; Q 4.36e-05; I 2.27e-05; L 0.000208; K 0; E 1.15e-05
chain 1 I13: Q 0.00199; A 5.81e-05; W 0.00073; K 0; F 0.00253; Y 0.00165; N 3.03e-05; T 3.35e-05
chain 1 L7: I 0
chain 1 L15: E 0; A 0; I 0.000505; Q 0; M 0.000121
